Results as given in patent US20250340635A1 (HEFEI TG IMMUNOPHARMA, published 2025).

B1: human-murine chimeric 10D10 antibody (antibody, human IgG1, kappa, L234A L235A)
heavy: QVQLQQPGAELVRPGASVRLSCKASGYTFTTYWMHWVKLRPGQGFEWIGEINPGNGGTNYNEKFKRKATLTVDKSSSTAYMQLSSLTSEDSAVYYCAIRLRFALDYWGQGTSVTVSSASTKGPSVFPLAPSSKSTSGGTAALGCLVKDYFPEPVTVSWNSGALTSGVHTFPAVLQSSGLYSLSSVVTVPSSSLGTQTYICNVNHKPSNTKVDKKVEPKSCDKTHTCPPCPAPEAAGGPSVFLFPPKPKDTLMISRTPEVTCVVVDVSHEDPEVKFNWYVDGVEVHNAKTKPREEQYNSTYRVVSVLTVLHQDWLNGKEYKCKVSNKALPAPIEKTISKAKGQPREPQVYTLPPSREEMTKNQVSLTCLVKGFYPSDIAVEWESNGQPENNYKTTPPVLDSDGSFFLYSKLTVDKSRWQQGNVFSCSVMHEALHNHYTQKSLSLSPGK
light: DIQMTQTTSSLSASLGDRVTISCRASQDVRNFLNWFQQKPDGTVKLLIYFTSRLHSGVPSRFSGSGSGTDYSLTISNLEQEDIATYFCQQGNTLPPTFGGGTKLEIKRTVAAPSVFIFPPSDEQLKSGTASVVCLLNNFYPREAKVQWKVDNALQSGNSQESVTEQDSKDSTYSLSSTLTLSKADYEKHKVYACEVTHQGLSSPVTKSFNRGEC
notes: Human IgG1 LALA constant region, made in ExpiCHO-S cells; also called 10D10-hIgG1LALA
B2: human-murine chimeric 3B9 antibody (antibody, human IgG1, kappa, L234A L235A)
heavy: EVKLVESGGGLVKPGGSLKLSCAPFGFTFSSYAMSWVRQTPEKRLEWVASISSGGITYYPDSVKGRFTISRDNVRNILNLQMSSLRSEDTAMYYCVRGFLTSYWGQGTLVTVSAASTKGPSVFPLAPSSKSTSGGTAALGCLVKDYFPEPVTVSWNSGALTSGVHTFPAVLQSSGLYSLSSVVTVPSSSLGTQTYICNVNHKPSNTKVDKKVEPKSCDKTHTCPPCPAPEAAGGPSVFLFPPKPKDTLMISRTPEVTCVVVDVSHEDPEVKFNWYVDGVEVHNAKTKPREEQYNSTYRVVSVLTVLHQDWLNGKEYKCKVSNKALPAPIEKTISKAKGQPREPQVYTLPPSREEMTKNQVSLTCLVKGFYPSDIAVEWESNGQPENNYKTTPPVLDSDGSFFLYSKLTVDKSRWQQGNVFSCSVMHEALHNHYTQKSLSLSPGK
light: DVVMTQTPLTLSVTIGQPASISCKSSQSLLNSDGKTYLNWLLQRPGQSPKRLISLVSKLDSGVPDRFTGSGSGTDFTLKISRVEAEDLGVYYCWQGTHFWTFGGGTKLEIKRTVAAPSVFIFPPSDEQLKSGTASVVCLLNNFYPREAKVQWKVDNALQSGNSQESVTEQDSKDSTYSLSSTLTLSKADYEKHKVYACEVTHQGLSSPVTKSFNRGEC
notes: Human IgG1 LALA constant region, made in ExpiCHO-S cells; also called 3B9-hIgG1LALA
B3: murine 3B9 antibody (antibody, mouse IgG2a, kappa)
heavy: EVKLVESGGGLVKPGGSLKLSCAPFGFTFSSYAMSWVRQTPEKRLEWVASISSGGITYYPDSVKGRFTISRDNVRNILNLQMSSLRSEDTAMYYCVRGFLTSYWGQGTLVTVSAAKTTAPSVYPLAPVCGDTTGSSVTLGCLVKGYFPEPVTLTWNSGSLSSGVHTFPAVLQSDLYTLSSSVTVTSSTWPSQSITCNVAHPASSTKVDKKIEPRGPTIKPCPPCKCPAPNLLGGPSVFIFPPKIKDVLMISLSPIVTCVVVDVSEDDPDVQISWFVNNVEVHTAQTQTHREDYNSTLRVVSALPIQHQDWMSGKEFKCKVNNKDLPAPIERTISKPKGSVRAPQVYVLPPPEEEMTKKQVTLTCMVTDFMPEDIYVEWTNNGKTELNYKNTEPVLDSDGSYFMYSKLRVEKKNWVERNSYSCSVVHEGLHNHHTTKSFSRTPGK
light: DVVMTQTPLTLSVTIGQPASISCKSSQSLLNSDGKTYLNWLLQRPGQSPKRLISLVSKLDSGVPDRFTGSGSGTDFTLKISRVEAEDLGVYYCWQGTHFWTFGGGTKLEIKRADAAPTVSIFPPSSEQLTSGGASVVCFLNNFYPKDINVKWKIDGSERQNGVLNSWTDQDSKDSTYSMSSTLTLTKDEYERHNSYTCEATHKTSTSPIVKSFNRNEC
notes: Murine monoclonal antibody from a hybridoma
B4: murine 10D10 antibody (antibody, mouse IgG2a, kappa)
heavy: QVQLQQPGAELVRPGASVRLSCKASGYTFTTYWMHWVKLRPGQGFEWIGEINPGNGGTNYNEKFKRKATLTVDKSSSTAYMQLSSLTSEDSAVYYCAIRLRFALDYWGQGTSVTVSSAKTTAPSVYPLAPVCGDTTGSSVTLGCLVKGYFPEPVTLTWNSGSLSSGVHTFPAVLQSDLYTLSSSVTVTSSTWPSQSITCNVAHPASSTKVDKKIEPRGPTIKPCPPCKCPAPNLLGGPSVFIFPPKIKDVLMISLSPIVTCVVVDVSEDDPDVQISWFVNNVEVHTAQTQTHREDYNSTLRVVSALPIQHQDWMSGKEFKCKVNNKDLPAPIERTISKPKGSVRAPQVYVLPPPEEEMTKKQVTLTCMVTDFMPEDIYVEWTNNGKTELNYKNTEPVLDSDGSYFMYSKLRVEKKNWVERNSYSCSVVHEGLHNHHTTKSFSRTPGK
light: DIQMTQTTSSLSASLGDRVTISCRASQDVRNFLNWFQQKPDGTVKLLIYFTSRLHSGVPSRFSGSGSGTDYSLTISNLEQEDIATYFCQQGNTLPPTFGGGTKLEIKRADAAPTVSIFPPSSEQLTSGGASVVCFLNNFYPKDINVKWKIDGSERQNGVLNSWTDQDSKDSTYSMSSTLTLTKDEYERHNSYTCEATHKTSTSPIVKSFNRNEC
notes: as for B3
B5: murine 10E10 antibody (antibody, mouse IgG2a, kappa)
heavy: QVQLQQSGDDLVKPGASVKLSCKASGYTFTSYWINWIKQRPGQGLEWIGRVVPGSGRTYYNEIFKGKAILTVDSYSNTAYIQLRSVSSEDSAVYFCARVGGYWDYWGQGITLTVSSAKTTAPSVYPLAPVCGDTTGSSVTLGCLVKGYFPEPVTLTWNSGSLSSGVHTFPAVLQSDLYTLSSSVTVTSSTWPSQSITCNVAHPASSTKVDKKIEPRGPTIKPCPPCKCPAPNLLGGPSVFIFPPKIKDVLMISLSPIVTCVVVDVSEDDPDVQISWFVNNVEVHTAQTQTHREDYNSTLRVVSALPIQHQDWMSGKEFKCKVNNKDLPAPIERTISKPKGSVRAPQVYVLPPPEEEMTKKQVTLTCMVTDFMPEDIYVEWTNNGKTELNYKNTEPVLDSDGSYFMYSKLRVEKKNWVERNSYSCSVVHEGLHNHHTTKSFSRTPGK
light: QIVLSQSPAILSASPGEKVTMACRASSSVNYIHWYQQRPGSSPKPWIYATSSLASGVPARFSGSGSGTSYSLTISRVEAEDAATYYCQQWSSNPYTFGGGTKLEMKRADAAPTVSIFPPSSEQLTSGGASVVCFLNNFYPKDINVKWKIDGSERQNGVLNSWTDQDSKDSTYSMSSTLTLTKDEYERHNSYTCEATHKTSTSPIVKSFNRNEC
notes: as for B3
B6: human-murine chimeric 10E10 antibody (antibody, human IgG1, kappa, L234A L235A)
heavy: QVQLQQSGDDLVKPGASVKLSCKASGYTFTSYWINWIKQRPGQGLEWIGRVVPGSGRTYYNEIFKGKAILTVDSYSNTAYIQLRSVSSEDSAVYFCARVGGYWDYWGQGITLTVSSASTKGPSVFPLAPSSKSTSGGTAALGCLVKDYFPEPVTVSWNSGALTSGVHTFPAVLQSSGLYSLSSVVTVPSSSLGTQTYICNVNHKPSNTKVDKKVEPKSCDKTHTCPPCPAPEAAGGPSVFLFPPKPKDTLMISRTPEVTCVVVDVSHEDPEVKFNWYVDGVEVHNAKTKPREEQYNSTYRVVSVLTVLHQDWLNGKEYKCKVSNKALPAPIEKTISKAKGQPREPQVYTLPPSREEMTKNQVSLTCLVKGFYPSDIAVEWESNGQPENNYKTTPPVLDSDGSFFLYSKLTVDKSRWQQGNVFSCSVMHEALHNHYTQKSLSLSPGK
light: QIVLSQSPAILSASPGEKVTMACRASSSVNYIHWYQQRPGSSPKPWIYATSSLASGVPARFSGSGSGTSYSLTISRVEAEDAATYYCQQWSSNPYTFGGGTKLEMKRTVAAPSVFIFPPSDEQLKSGTASVVCLLNNFYPREAKVQWKVDNALQSGNSQESVTEQDSKDSTYSLSSTLTLSKADYEKHKVYACEVTHQGLSSPVTKSFNRGEC
notes: Human IgG1 LALA constant region, made in ExpiCHO-S cells; also called 10E10-hIgG1LALA
B7: humanized 10D10 antibody (antibody, human IgG1, kappa, L234A L235A, V domains shown)
VH: QVQLVQSGAEVKKPGASVKVSCKASGYTFTTYWMHWVKQAPGQGLEWIGEINPGNGGTNYNEKFKRRATMTVDKSISTAYMELSRLRSDDTAVYYCAIRLRFALDYWGQGTLVTVSS
VL: DIQMTQSPSSLSASVGDRVTITCRASQDVRNFLNWFQQKPGKAPKLLIYFTSRLHSGVPSRFSGSGSGTDYTFTISSLQPEDIATYFCQQGNTLPPTFGGGTKLEIKR
notes: human IgG1 LALA; also called h10D10-hIgG1LALA; humanized NKp46 antibody

Each binder was assayed against T1, NKp46 on human peripheral blood mononuclear cells (human, UniProt O76036 22-304) (assay: flow cytometry on PBMCs).
T1 construct: also called human PBMCs
T1 sequence (O76036 22-304 Q82K limits assumed): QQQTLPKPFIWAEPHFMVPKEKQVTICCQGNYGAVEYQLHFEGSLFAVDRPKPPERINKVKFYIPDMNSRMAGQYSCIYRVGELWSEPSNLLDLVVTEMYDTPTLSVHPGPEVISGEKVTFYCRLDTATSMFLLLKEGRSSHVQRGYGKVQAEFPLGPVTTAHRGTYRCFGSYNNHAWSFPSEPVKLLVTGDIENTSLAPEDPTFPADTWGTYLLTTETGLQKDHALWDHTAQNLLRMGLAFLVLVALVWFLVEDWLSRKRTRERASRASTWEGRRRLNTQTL
Description: (§1) The binding characteristics of the two human-murine chimeric NKp46 antibodies (i.e., human-murine chimeric 10D10 antibody and human-murine chimeric 3B9 antibody) prepared in Example 4 were detected using the flow cytometry assay. Human-murine chimeric NKp46 antibodies were added to human and cynomolgus monkey peripheral blood mononuclear cells. The signal intensity after antibody addition was used to determine the binding characteristics of the antibody to PBMCs. The specific steps were as follows:
(§2) Human and cynomolgus monkey peripheral blood mononuclear cells (PBMCs) were diluted to 2×10⁶ cells/mL with PBS and added to 1.5 mL EP tube at 100 μL/tube. Goat serum was added at 10 μL/tube and was blocked at 4° C. for 30 min. NKp46 antibodies at different concentrations gradients and the positive control antibody (hIgG1 LALA) were added and incubated at 4° C. for 30 min. The EP tube was added with 1 mL of PBS, and centrifuged at 3500 rpm at 4° C. for 5 min. The supernatant was discarded and the pellet was washed once more with PBS. After centrifugation, the supernatant was discarded, and the cells were resuspended with 100 IL/tube of PBS, and 0.1 μL/tube of Alexa-647 labeled rat anti-human IgG-Fc secondary antibody (Biolegend) and 0.5 μL/tube BV510-labeled CD16 antibody were added, and incubated at 4° C. in the dark for 30 min. The pellet was washed twice with PBS and the supernatant was discarded after centrifugation. The cells were resuspended with 200 μL/tube of PBS and detected by flow cytometry.

binding result | Binder
binds | B1
binds | B2

What follows are binders tested against T2, NKp46 on cynomolgus monkey peripheral blood mononuclear cells (cynomolgus monkey, UniProt Q95JB9 22-306) (assay: flow cytometry on PBMCs).
T2 construct: whole, on cells; also called cynomolgus monkey PBMCs
T2 sequence (Q95JB9 22-306): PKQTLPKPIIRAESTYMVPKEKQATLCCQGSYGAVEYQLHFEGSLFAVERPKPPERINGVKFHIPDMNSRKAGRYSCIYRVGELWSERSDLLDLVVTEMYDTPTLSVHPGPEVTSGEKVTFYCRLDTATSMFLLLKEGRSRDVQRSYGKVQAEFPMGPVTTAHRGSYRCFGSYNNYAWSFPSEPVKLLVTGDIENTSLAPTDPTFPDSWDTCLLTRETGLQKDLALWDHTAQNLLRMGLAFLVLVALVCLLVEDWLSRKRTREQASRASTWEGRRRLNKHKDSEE
Description: as §1, §2

binding result | Binder
binds | B1
binds | B2

Each binder was assayed against T1, NKp46 on human peripheral blood … (assay: flow cytometry on human PBMCs).
Description: The binding characteristics of the three NKp46 antibodies (10D10 antibody, 10E10 antibody, and 3B9 antibody) obtained in Example 1 were detected using the flow cytometry assay. Murine NKp46 antibodies were added to human peripheral blood mononuclear cells. The signal intensity after antibody addition was used to determine the binding characteristics of the antibody to PBMCs. The specific steps were as follows:
Human peripheral blood mononuclear cells (PBMCs) were diluted to 2×10⁶ cells/mL with PBS and added to a 1.5 mL EP tube at 100 μL/tube. Goat serum was added at […] and was blocked at 4° C. for 30 min. NKp46 antibodies at different concentrations gradients were added and incubated at 4° C. for 30 min. The EP tube was added with 1 mL of PBS, and centrifuged at 3500 rpm at 4° C. for 5 min. The supernatant was discarded and the pellet was washed once more with PBS. After centrifugation, the supernatant was discarded, and the cells were resuspended with 100 μL/tube of PBS, and 0.1 μL/tube of Alexa-647-labeled goat anti-mouse secondary antibody (Biolegend) and 0.5 μL/tube of FITC-labeled CD3 antibody were added, and incubated at 4° C. in the dark for 30 min. The pellet was washed twice with PBS and the supernatant was discarded after centrifugation. The cells were resuspended with 200 μL/tube of PBS and detected by flow cytometry.

binding result | Binder
binds | B3
binds | B4
binds | B5

These binders were tested against T3, human NKp46-His fusion protein (human, UniProt O76036 22-258) (assay: ELISA, NKp46-His coated, anti-human HRP).
T3 construct: Bought from Acro; also called NKp46 extracellular region His tag fusion protein; not shown: His tag
T3 sequence (O76036 22-258 Q82K): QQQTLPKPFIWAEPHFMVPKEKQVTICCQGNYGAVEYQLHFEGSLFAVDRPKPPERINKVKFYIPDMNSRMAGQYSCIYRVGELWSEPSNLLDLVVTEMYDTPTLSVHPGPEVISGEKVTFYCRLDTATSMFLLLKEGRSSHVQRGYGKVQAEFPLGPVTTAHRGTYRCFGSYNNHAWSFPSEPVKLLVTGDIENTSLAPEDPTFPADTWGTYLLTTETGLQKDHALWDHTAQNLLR

binding result | Binder
binds | B6
binds | B1
binds | B7
binds | B2

These binders were tested against T4, cynomolgus monkey-His fusion protein (cynomolgus monkey, UniProt Q95JB9 22-257) (assay: ELISA, NKp46-His coated, anti-human HRP).
T4 construct: extracellular domain; also called cynomolgus monkey NKp46; monkey NKp46; not shown: His tag
T4 sequence (Q95JB9 22-257): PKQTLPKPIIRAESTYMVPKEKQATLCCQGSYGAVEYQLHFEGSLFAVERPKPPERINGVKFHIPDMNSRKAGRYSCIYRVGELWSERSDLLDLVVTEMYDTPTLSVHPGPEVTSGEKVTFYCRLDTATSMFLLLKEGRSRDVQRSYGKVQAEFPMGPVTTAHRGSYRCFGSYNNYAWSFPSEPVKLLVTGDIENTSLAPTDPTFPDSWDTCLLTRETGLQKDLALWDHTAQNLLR

binding result | Binder
binds | B6
binds | B1
binds | B7
binds | B2

What follows are binders tested against T3, human NKp46-His fusion protein (assay: ELISA, NKp46-His coated, anti-mouse HRP).
Excerpt: (§3) The binding characteristics of the three NKp46 antibodies (10D10 antibody, 10E10 antibody, and 3B9 antibody) obtained in Example 1 were detected using the ELISA assay. The NKp46 extracellular region His tag fusion protein (NKp46-His) was coated into a 96-well plate. The signal intensity after antibody addition was used to determine the binding characteristics of the antibody to NKp46. The specific steps were as follows:
(§4) The human NKp46-His fusion protein (purchased from Acro) and cynomolgus monkey-His fusion protein (purchased from Acro) were diluted to 1 μg/mL with PBS buffer, added to a 96-well plate at 100 μL/well, and left overnight at 4° C. The PBS buffer solution was removed from the 96-well plate. The plate was washed 6 times with PBST (pH 7.2, PBS containing 0.1% Tween 20) buffer solution. PBS/10% BSA was added at 200 μL/well and incubated at 37° C. for 2 hours for blocking. The blocking solution was removed. The plate was washed 6 times with PBST. NKp46 antibody to be tested diluted to an appropriate concentration with PBST/0.05% BSA was added at 100 μL/well, and incubated for 1 h at 37° C. The reaction system was removed. The plate was washed 6 times with PBST. HRP (horseradish peroxidase)-labeled anti-mouse secondary antibody diluted with PBST/0.05% BSA was added at 100 μL/well and incubated for 1 h at 37° C. The plate was washed 6 times with PBST, and TMB (tetramethylbenzidine) was added at 80 μL/well. After 3 min of incubation at room temperature, 4M sulfuric acid was added at 80 μL/well to terminate the reaction. The absorbance at […] was read with a microplate reader.

binding result | Binder
binds | B3
binds | B4
binds | B5

These binders were tested against T4, cynomolgus monkey-His fusion protein (assay: ELISA, NKp46-His coated, anti-mouse HRP).
Excerpt: as §3, §4

binding result | Binder
binds | B3
binds | B4
binds | B5
